Measurements from patent US20260116928A1, “COMPOSITIONS AND PARTICLES FOR PAYLOAD DELIVERY” (Thornhill Therapeutics, Inc., priority 2019, published 2026).

System: pancreatin
Assay: Pancreatin assay (stability of SEQ ID NO: 3 and exenatide formulations)
Settings: after 120 minutes of incubation with pancreatin; FIG. 11

B1: SEQ ID NO: 3: Cholix carrier protein having the sequence of SEQ ID NO: 3 (protein)
chain: MVEEALNIFDECRSPCSLTPEPGKPIQSKLSIPSDVVLDEGVLYYSMTINDEQNDIKDEDKGESIITIGEFATVRATRHYVNQDAPFGVIHLDITTENGTKTYSYNRKEGEFAINWLVPIGEDSPASIKISVDELDQQRNIIEVPKLYSIDLDNQTLEQWKTQGNVSFSVTRPEHNIAISWPSVSYKAAQKEGSRHKRWAHWHTGLALCWLVPMDAIYNYITQQNCTLGDNWFGGSYETVAGTPKVITVKQGIEQKPVEQRIHFSKGSGGSGGGGSGGGGSPRRRRSSSRPVRRRRRPRVSRRRRRRGGRRRRHHHHHH
**Q.** B1 was tested. Which “degradation of SEQ ID NO: 3 by pancreatin” value did it give?
**A.** completely degraded
